# Data from PMC11388340, “HIRA complex deposition of histone H3.3 is driven by histone tetramerization and histone-DNA binding”.
# B1: 10x ATGC 40-mer dsDNA (dsDNA)
# DNA 1: ATGCATGCATGCATGCATGCATGCATGCATGCATGCATGC
# DNA 2: GCATGCATGCATGCATGCATGCATGCATGCATGCATGCAT
# Key:
# HIRA-WB;UBN1-NM;ASF1a-C = HIRA-WB;UBN1-NM;ASF1a-C (human;human;human?, UniProt P54198;Q9NPG3;Q9Y294 1-473;1-584;1-156, ||); test: fluorescence polarization; no histones; 20 mM HEPES pH 7.5, 150 mM NaCl, 0.5 mM TCEP, 0.001% Tween-20, 1 mg/ml BSA; 10 nM probe; temperature not stated; conditions: protein: recombinant;recombinant;recombinant; tags: N-terminal His;;GST cleaved with precision protease; copies: 1;1;1; label: 5'-FAM on sense strand; blunt
# HIRA-WB;UBN1-NM = HIRA-WB;UBN1-NM (human;human, UniProt P54198;Q9NPG3 1-473;1-584, |); test: as above; conditions: protein: recombinant;recombinant; tags: N-terminal His;; copies: 1;1; label: 5'-FAM on sense strand; blunt
# H3.3/H4 = H3.3/H4 (Homo sapiens (H3.3); Xenopus laevis (H4), UniProt P84243;P62799 2-136;2-103); test: fluorescence polarization; 20 mM HEPES pH 7.5, 150 mM NaCl, 0.5 mM TCEP, 0.001% Tween-20, 1 mg/ml BSA; 10 nM probe; temperature not stated
# HIRA-WB;UBN1-NM;H3.3/H4 = HIRA-WB;UBN1-NM;H3.3/H4 (human;human;Homo sapiens (H3.3); …, UniProt P54198;Q9NPG3;P84243;P62799 1-473;1-584;2-136;2-103, ||); test: as above
binder,measurement,setting,value
B1,Kd,HIRA-WB;UBN1-NM;ASF1a-C,970 nM
same,Kd,HIRA-WB;UBN1-NM,370 nM
same,Kd,H3.3/H4,240 nM
same,Kd,HIRA-WB;UBN1-NM;H3.3/H4,40 nM
